From paper PMC4600729

Legend:
[1] = molecular target: T1, taxol-stabilized microtubules (polymer of alpha/beta-tubulin), immobilized; experiment: single-molecule TIRF microscopy; GFP-labelled motor (25 pM) in 1 mM ATP on immobilized taxol-stabilized microtubules; pause lifetimes at plus ends, exponential fit; BRB80 pH 6.8
[2] = molecular target: dynamic microtubules growing from surface-immobilized GMPCPP seeds (polymer of alpha/beta-tubulin); experiment: TIRF microscopy; GFP-labelled motors (20-30 nM, or 50 pM for single molecules) on microtubules growing from immobilized GMPCPP seeds in 10 or 20 μM unlabelled tubulin, 1 mM ATP
[3] = molecular target: T1, taxol-stabilized microtubules (polymer …); experiment: single-molecule TIRF microscopy; spiking experiment, crowded conditions: pM GFP-labelled motor mixed with 15-25 nM unlabelled motor; binding durations at plus ends of taxol-stabilized microtubules

T1 sequence (P68363 whole entry, chain 1 of 2): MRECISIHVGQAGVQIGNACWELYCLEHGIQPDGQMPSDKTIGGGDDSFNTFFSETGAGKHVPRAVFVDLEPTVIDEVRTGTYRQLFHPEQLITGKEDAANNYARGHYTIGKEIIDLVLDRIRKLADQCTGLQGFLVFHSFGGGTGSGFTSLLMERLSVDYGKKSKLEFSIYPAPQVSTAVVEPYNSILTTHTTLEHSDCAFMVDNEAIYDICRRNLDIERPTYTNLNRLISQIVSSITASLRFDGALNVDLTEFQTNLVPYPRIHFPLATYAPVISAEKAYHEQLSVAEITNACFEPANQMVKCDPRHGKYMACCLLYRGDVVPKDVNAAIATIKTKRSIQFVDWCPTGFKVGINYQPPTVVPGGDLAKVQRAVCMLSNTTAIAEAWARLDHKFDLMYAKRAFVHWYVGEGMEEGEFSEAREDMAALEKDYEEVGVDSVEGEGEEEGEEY
T1 sequence (A8K068 whole entry, chain 2 of 2, further chain): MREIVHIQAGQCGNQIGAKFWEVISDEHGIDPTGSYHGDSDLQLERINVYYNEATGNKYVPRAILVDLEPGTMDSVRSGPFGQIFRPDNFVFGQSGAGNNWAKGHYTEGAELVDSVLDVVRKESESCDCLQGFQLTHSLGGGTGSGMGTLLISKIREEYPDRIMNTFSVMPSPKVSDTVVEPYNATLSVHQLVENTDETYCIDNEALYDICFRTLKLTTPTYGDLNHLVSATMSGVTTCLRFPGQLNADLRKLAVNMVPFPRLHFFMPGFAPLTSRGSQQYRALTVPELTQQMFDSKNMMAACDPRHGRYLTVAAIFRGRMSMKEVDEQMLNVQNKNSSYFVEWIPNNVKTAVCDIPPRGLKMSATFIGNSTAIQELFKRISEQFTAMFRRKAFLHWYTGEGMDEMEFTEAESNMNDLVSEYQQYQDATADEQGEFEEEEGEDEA
Sequence of dynamic microtubules growing from surface-immobilized GMPCPP seeds (polymer of alpha/beta-tubulin) (chain, as listed by the source, chain 1 of 2): as the sequence (P68363 whole entry, chain 1 of 2) above
Sequence of dynamic microtubules growing from surface-immobilized GMPCPP seeds (polymer of alpha/beta-tubulin) (chain, as listed by the source, chain 2 of 2): as the sequence (A8K068 whole entry, chain 2 of 2, further chain) above

mean pause duration at plus ends [1]: 7.2 s | mean residence time at dynamic plus ends [2]: 7.04 s | end duration at plus ends under crowded conditions [3]: 2.61 s
B1: Kin5_14GFP (dimeric kinesin-5 as Kin5_18 but with the neck linker shortened to 14 residues, GFP-tagged) (protein)
chain: MSSQNSFMASKKEDKGKNIQVVVRCRPFNQLERKASSHSVLECDSQRKEVYVRTGEVNDKLGKKTYTFDMVFGPAAKQIEVYRSVVCPILDEVIMGYNCTIFAYGQTGTGKTFTMEGERSSDEEFTWEQDPLAGIIPRTLHQIFEKLSENGTEFSVKVSLLEIYNEELFDLLSPSPDVGERLQMFDDPRNKRGVIIKGLEEISVHNKDEVYHILERGAARRKTASTLMNAYSSRSHSVFSVTIHMKETTVDGEELVKIGKLNLVDLAGSENIGRSGAVDKRAREAGNINQSLLTLGRVITALVERTPHIPYRESKLTRILQDSLGGRTKTSIIATVSPASINLEETVSTLDYANRAKSIMNKPEVNQKLTAEEWKRRYEKEKEKNARLKGKVEKLEIELARWRAGETVKAEEQINMEDLMEASTPNLEVEAAQTAAAEAALAAQRTALANMSASVAVNEQARLATECERLYQQLDDKDEEINQQSQYAEQLKEQVMEQEELIANARREYETLQSEMARIQQENESAKEEVKEVLQALEELAVNYDQKSQEIDNKNKDIDALNEELQQKQSVFNAASTELQQLKDM
modifications: not checked
